In patent publication US20140072613A1, “Compositions and Methods for Treating Cutaneous Scarring” (priority 2012, published 2014):

Assays:
Assay in all cases: cell-based or functional assay
STK33(h) (human) = STK33(h) (human) (UniProt Q9BYT3)
ZIPK(h) (human) = ZIPK(h) (human) (UniProt O43293)
EGFR(L858R)(h) (human) = EGFR(L858R)(h) (human) (UniProt P00533)
IR(h) (human) = IR(h) (human) (UniProt P06213)
Tie2(h) (human) = Tie2(h) (human) (UniProt Q02763)
CK1δ(h) (human) = CK1δ(h) (human) (UniProt P48730)
CK1δ(h) (human), sequence (P48730 1-294, stated change not applied): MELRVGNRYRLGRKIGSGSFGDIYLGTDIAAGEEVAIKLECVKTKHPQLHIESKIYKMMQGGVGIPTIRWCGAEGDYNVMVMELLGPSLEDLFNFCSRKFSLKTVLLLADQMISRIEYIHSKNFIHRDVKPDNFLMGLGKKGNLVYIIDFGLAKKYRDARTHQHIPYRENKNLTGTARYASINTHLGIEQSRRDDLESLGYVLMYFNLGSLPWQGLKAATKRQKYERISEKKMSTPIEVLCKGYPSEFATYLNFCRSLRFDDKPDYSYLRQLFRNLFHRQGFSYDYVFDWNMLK

cKit(h) (human) = cKit(h) (human) (UniProt P10721)
Flt1(h) (human) = target: T1, Flt1(h) (human) (UniProt P17948)
T1 sequence (looked up): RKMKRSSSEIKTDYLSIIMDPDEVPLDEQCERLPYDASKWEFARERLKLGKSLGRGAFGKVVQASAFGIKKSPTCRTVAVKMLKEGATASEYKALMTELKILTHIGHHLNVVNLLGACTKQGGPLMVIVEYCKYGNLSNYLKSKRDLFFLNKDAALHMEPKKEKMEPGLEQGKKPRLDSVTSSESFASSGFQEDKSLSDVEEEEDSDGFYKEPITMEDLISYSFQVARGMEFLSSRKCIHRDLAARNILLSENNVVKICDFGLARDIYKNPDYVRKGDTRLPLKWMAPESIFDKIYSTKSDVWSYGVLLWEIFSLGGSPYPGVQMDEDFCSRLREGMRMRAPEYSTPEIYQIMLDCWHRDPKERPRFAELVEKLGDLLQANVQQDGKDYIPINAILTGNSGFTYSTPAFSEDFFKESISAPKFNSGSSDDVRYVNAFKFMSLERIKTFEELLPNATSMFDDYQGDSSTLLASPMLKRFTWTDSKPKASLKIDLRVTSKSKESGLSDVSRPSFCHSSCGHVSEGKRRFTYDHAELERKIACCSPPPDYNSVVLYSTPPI

JAK2(h) (human) = JAK2(h) (human) (UniProt O60674)
JAK2(h) (human), sequence (O60674 808-1132 limits assumed): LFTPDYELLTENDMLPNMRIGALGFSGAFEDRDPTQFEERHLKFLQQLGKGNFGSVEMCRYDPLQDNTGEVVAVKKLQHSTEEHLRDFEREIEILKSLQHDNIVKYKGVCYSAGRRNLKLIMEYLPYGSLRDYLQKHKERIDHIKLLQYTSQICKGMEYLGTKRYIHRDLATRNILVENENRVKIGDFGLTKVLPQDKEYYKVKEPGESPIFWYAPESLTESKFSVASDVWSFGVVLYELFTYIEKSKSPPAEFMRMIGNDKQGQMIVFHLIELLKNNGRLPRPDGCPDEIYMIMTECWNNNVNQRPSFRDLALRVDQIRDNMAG

CSK(h) (human) = CSK(h) (human) (UniProt P41240)
Aurora-B(h) (human) = Aurora-B(h) (human) (UniProt Q96GD4)
cKit(D816V)(h) (human) = cKit(D816V)(h) (human) (UniProt P10721)
Lck(h) (human) = Lck(h) (human) (UniProt P06239)
Lck(h) (human), sequence (P06239 whole entry): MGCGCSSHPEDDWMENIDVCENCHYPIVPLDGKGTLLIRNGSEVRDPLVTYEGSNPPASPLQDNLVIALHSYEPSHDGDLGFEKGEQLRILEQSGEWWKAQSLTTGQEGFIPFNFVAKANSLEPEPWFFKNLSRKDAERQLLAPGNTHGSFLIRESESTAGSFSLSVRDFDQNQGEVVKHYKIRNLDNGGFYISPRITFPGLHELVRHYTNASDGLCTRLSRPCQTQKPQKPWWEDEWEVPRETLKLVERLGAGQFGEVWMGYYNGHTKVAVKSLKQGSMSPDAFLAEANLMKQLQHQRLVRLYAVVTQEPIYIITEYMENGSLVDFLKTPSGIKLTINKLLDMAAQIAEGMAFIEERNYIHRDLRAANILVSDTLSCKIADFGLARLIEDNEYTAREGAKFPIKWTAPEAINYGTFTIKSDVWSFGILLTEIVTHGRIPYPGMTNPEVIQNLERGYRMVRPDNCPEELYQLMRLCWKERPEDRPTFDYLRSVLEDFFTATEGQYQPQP

MEK1(h) (human) = MEK1(h) (human) (UniProt Q02750)
Syk(h) (human) = Syk(h) (human) (UniProt P43405)
PKBγ(h) (human) = PKBγ(h) (human) (UniProt Q9Y243)
PKBγ(h) (human), sequence (Q9Y243 whole entry): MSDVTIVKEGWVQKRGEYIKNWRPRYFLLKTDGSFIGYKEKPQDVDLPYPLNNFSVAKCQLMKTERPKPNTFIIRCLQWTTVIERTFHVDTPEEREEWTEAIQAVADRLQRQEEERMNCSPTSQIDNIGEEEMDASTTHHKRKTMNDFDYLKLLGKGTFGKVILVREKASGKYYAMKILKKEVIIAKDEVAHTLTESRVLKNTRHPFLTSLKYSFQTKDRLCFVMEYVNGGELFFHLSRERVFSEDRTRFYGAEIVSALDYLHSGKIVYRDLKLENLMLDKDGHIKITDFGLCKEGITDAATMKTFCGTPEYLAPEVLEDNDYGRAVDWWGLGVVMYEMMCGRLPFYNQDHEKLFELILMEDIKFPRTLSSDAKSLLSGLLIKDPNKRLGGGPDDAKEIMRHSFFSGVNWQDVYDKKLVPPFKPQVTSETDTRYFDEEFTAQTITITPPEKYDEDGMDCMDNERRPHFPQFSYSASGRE

Rse(h) (human) = target: T2, Rse(h) (human) (UniProt Q06418)
T2 sequence (looked up): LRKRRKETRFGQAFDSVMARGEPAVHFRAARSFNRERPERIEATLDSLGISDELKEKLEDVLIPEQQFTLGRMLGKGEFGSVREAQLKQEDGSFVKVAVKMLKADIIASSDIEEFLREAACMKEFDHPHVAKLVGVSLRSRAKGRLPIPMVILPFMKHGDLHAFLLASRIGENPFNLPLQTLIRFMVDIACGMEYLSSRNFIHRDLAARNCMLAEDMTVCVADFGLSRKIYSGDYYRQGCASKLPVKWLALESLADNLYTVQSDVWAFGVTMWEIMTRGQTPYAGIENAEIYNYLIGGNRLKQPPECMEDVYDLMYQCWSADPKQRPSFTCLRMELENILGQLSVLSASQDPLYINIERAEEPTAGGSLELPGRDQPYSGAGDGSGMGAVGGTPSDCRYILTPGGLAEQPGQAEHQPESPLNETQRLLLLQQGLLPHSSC

JNK2α2(h) (human) = JNK2α2(h) (human) (UniProt P45984)
IRR(h) (human) = IRR(h) (human) (UniProt P14616)
IRR(h) (human), sequence (P14616 960-1297 limits assumed): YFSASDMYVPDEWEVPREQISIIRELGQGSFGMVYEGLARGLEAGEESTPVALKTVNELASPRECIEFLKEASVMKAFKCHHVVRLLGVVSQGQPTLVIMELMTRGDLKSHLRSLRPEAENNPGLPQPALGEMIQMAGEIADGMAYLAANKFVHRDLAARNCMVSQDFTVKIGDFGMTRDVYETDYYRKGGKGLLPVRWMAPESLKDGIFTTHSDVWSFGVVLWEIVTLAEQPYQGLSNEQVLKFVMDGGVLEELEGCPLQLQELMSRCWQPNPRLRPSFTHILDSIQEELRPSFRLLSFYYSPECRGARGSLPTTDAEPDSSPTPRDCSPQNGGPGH

RIPK2(h) (human) = RIPK2(h) (human) (UniProt O43353)
RIPK2(h) (human), sequence (O43353 1-299 limits assumed): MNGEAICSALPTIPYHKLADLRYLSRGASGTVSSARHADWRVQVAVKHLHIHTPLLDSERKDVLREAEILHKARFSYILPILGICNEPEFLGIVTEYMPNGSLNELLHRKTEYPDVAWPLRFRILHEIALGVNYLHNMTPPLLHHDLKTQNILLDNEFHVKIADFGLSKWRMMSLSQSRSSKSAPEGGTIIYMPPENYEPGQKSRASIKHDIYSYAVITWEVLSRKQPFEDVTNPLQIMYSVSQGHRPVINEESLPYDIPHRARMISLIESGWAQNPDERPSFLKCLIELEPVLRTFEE

ROCK-II(h) (human) = ROCK-II(h) (human) (UniProt O75116)
MLK1(h) (human) = MLK1(h) (human) (UniProt P80192)
PKD2(h) (human) = target: T3, PKD2(h) (human) (UniProt Q9BZL6)
T3 sequence (looked up): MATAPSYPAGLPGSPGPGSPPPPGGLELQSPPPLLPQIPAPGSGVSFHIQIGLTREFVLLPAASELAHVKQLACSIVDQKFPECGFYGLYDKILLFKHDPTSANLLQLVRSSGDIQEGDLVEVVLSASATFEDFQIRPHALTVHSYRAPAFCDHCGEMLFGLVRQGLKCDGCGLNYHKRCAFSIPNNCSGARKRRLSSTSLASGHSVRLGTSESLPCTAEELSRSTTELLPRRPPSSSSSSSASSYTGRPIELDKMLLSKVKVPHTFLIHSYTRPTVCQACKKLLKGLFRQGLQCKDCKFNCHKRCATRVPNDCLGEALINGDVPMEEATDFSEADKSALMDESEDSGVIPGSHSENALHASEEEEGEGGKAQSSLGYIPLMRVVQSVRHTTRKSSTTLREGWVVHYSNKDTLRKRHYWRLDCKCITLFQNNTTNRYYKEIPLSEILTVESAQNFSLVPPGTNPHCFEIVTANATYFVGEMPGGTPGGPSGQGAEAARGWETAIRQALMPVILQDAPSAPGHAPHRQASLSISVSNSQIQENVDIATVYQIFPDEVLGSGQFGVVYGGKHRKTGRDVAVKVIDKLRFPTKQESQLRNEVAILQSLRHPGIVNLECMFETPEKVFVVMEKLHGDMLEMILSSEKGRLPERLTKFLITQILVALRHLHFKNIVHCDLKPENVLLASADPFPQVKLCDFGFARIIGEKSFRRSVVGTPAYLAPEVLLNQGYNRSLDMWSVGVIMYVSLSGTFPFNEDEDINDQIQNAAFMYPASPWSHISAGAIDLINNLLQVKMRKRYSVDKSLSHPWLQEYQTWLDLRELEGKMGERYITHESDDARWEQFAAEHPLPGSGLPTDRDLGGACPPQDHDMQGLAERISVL

Abl(h) (human) = Abl(h) (human) (UniProt P00519)
Abl(h) (human), sequence (P00519 27-1130 limits assumed): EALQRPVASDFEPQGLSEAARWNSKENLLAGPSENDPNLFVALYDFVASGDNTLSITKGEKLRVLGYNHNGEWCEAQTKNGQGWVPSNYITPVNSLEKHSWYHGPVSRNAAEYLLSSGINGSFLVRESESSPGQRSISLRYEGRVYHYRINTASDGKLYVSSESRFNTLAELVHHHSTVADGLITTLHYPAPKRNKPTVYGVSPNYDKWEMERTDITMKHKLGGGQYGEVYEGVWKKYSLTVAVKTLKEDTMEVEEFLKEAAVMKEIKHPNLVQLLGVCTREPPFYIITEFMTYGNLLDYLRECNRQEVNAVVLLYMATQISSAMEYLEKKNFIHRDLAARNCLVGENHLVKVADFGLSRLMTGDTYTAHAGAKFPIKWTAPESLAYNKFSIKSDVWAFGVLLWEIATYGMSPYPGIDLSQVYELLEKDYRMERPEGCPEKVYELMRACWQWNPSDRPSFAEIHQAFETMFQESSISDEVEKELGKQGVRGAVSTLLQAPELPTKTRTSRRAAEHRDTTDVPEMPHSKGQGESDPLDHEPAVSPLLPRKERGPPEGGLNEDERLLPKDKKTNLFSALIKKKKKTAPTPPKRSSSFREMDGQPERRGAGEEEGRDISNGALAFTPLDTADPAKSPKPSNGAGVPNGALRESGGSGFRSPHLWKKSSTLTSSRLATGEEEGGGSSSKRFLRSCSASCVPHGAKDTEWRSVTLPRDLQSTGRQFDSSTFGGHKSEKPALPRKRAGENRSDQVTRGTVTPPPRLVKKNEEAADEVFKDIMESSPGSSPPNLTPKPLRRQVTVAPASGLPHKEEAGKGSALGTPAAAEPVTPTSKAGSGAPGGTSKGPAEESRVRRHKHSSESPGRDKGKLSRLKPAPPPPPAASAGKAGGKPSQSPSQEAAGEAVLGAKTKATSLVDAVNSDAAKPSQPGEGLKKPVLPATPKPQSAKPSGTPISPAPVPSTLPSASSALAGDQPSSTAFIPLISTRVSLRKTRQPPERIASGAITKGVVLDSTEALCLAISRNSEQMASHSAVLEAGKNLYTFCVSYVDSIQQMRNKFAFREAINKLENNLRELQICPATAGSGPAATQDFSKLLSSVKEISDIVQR

MSK1(h) (human) = MSK1(h) (human) (UniProt O75582)
MSK1(h) (human), sequence (O75582 whole entry): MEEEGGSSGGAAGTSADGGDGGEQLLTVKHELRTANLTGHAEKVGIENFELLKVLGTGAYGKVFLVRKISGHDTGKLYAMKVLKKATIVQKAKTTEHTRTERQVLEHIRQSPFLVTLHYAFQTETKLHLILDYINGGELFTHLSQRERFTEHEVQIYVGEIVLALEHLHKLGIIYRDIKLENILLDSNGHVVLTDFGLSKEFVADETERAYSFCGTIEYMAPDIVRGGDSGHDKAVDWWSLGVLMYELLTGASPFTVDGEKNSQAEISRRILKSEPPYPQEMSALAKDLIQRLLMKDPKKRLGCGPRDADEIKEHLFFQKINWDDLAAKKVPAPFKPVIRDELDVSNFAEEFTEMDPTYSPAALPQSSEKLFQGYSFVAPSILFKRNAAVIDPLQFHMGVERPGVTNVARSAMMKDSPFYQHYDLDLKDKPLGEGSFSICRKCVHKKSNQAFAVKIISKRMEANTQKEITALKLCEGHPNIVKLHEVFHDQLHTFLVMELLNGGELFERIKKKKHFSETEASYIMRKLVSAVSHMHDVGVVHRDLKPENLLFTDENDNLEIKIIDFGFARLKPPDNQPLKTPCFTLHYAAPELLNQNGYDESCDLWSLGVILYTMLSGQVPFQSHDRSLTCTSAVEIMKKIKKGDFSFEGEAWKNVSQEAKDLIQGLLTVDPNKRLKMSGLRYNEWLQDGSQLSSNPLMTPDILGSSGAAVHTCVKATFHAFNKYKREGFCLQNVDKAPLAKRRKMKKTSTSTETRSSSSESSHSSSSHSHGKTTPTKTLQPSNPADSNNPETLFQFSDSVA

IR(h) (human), sequence (P06213 1005-1310 limits assumed): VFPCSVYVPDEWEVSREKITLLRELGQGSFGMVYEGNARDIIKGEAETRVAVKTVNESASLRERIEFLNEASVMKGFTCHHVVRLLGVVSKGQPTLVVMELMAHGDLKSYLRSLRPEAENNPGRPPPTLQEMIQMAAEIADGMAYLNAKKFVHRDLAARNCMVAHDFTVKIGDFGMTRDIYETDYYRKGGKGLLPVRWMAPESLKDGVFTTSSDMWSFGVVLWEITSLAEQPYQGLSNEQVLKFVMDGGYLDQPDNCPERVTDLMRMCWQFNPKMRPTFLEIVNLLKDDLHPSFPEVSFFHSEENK
Tie2(h) (human), sequence (Q02763 771-1124 limits assumed): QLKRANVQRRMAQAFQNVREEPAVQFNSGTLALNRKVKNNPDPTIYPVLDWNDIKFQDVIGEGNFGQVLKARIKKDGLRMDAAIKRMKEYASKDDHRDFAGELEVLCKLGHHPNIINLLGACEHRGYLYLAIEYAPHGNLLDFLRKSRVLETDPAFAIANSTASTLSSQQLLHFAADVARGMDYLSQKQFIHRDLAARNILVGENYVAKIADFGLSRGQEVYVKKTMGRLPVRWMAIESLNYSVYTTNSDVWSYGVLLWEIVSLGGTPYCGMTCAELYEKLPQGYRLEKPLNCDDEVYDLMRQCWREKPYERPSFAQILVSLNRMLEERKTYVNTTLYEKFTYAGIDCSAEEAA

% activity, 100 µM (STK33(h) (human)): 16%
% activity, 100 µM (ZIPK(h) (human)): 1%
% activity, 100 µM (EGFR(L858R)(h) (human)): 26%
% activity, 100 µM (IR(h) (human)): 95%
% activity, 100 µM (Tie2(h) (human)): 22%
% activity, 100 µM (CK1δ(h) (human)): 78%
% activity, 100 µM (cKit(h) (human)): 45%
% activity, 100 µM (Flt1(h) (human)): 27%
% activity, 100 µM (JAK2(h) (human)): 49%
% activity, 100 µM (CSK(h) (human)): 2%
% activity, 100 µM (Aurora-B(h) (human)): 5%
% activity, 100 µM (cKit(D816V)(h) (human)): 30%
% activity, 100 µM (Lck(h) (human)): 359%
% activity, 100 µM (MEK1(h) (human)): 21%
% activity, 100 µM (Syk(h) (human)): 5%
% activity, 100 µM (PKBγ(h) (human)): 20%
% activity, 100 µM (Rse(h) (human)): 63%
% activity, 100 µM (JNK2α2(h) (human)): 81%
% activity, 100 µM (IRR(h) (human)): 10%
% activity, 100 µM (RIPK2(h) (human)): 30%
% activity, 100 µM (ROCK-II(h) (human)): 2%
% activity, 100 µM (MLK1(h) (human)): 43%
% activity, 100 µM (PKD2(h) (human)): 10%
% activity, 100 µM (Abl(h) (human)): 16%
% activity, 100 µM (MSK1(h) (human)): 8%
Substance: MMI-0500 (peptide)
